In the DeepSol protein solubility set:

Assay: soluble on expression in E. coli; label from the status in PepcDB or PDB records

Soluble on expression in E. coli, soluble:
MAYRICLIEGDGIGHEVIPAARRVLEATGLPLEFVEAEAGWETFERRGTSVPEETVEKILSCHATLFGAATSPTRKVPGFFGAIRYLRRRLDLYANVRPAKSRPVPGSRPGVDLVIVRENTEGLYVEQERRYLDVAIADAVISKKASERIGRAALRIAEGRPRKTLHIAHKANVLPLTQGLFLDTVKEVAKDFPLVNVQDIIVDNCAMQLVMRPERFDVIVTTNLLGDILSDLAAGLVGGLGLAPSGNIGDTTAVFEPVHGSAPDIAGKGIANPTAAILSAAMMLDYLGEKEAAKRVEKAVDLVLERGPRTPDLGGDATTEAFTEAVVEALKSL
QKLVQLILDEIVEGGAKVEWTDIAGQDVAKQALQEMVILPSVRPELFTGLRAPAKGLLLFGPPGNGKTLLARAVATECSATFLNISAASLTSKYVGDGEKLVRALFAVARHMQPSIIFIDEVDSLLSERSSSEHEASRRLKTEFLVEFDGLPGNPDGDRIVVLAATNRPQELDEAALRRFTKRVYVSLPDEQTRELLLNRLLQKQGSPLDTEALRRLAKITDGYSGSDLTALAKDAALEPIRELNVEQVKCLDISAMRAITEQDFHSSLKRIRRSVAPQSLNSYEKWSQDYGDITIK
MHSFPPLLLLLFWGVVSHSFPATLETQEQDVDLVQKYLEKYYNLKNDGRQVEKRRNSGPVVEKLKQMQEFFGLKVTGKPDAETLKVMKQPRCGVPDVAQFVLTEGNPRWEQTHLTYRIENYTPDLPRADVDHAIEKAFQLWSNVTPLTFTKVSEGQADIMISFVRGDHRDNSPFDGPGGNLAHAFQPGPGIGGDAHFDEDERWTNNFREYNLHRVAAHELGHSLGLSHSTDIGALMYPSYTFSGDVQLAQDDIDGIQAIYGRSQNPVQPIGPQTPKACDSKLTFDAITTIRGEVMFFKDRFYMRTNPFYPEVELNFISVFWPQLPNGLEAAYEFADRDEVRFFKGNKYWAVQGQNVLHGYPKDIYSSFGFPRTVKHIDAALSEENTGKTYFFVANKYWRYDEYKRSMDPGYPKMIAHDFPGIGHKVDAVFMKDGFFYFFHGTRQYKFDPKTKRILTLQKANSWFNCRKN
MVNLDAEIYEHLNKQIKINELRYLSSGDDSDTFLCNEQYVVKVPKRDSVRISQKREFELYRFLENCKLSYQIPAVVYQSDRFNIMKYIKGERITYEQYHKLSEKEKDALAYDEATFLKELHSIEIDCSVSLFSDALVNKKDKFLQDKKLLISILEKEQLLTDEMLEHIETIYENILNNAVLFKYTPCLVHNDFSANNMIFRNNRLFGVIDFGDFNVGDPDNDFLCLLDCSTDDFGKEFGRKVLKYYQHKAPEVAERKAELNDVYWSIDQIIYGYERKDREMLIKGVSELLQTQAEMFIF

Soluble on expression in E. coli, not soluble:
MPRTDLPFDELIIREYLLDNPDFFNRYPELLLAMRLPHLERGAISLVERRQELLRQRVNQLEEEITSLLTMAARNEKIFLFNTELSFKLLNCVNLESLKEVLADNLKAQFNFTHVRLISVLEADVEMKAIWAERLRKEYYFGRLTQQEAKRLFGSEVGSVALVKLADDIPVIFAVASHDATHFHPDMDNMLLEQIRRLLAHMLAKLAAALEHHHHHH
MVLADGELTVLGRIRSASNATFLCESTLGLRSLHCVYKPVSGERPLWDFPDGTLAGRELSAYLVSTQLGWNLVPHTIIRDGPAGIGMLQLWVQQPGDAVDSDPLPGPDLVDLFPAHRPRPGYLPVLRAYDYAGDEVVLMHADDIRLRRMAVFDVLINNADRKGGHILCGIDGQVYGVDHGLCLHVENKLRTVLWGWAGKPIDDQILQAVAGLADALGGPLAEALAGRIAAAEIGALRRRAQSLLDQPVMPGPNGHRPIPWPAFLEHHHHHH
MEHNQLIAMITEAVMEQIRPLPKINQIPVAISNRHVHLSQEDAQTLFGPNYSFKIKKDLSQPGQYACEERVTLVGPKGVIENVRILGPVRPQTQVELSVSDGIKLGITPPVRDSGDLANSAGITLVGPSGSLTLPEGVIAAARHIHMHSTDAARFGVKDRDRVSVTAPGPRGLVFRETLIRVSHNFTLEMHIDIDEANAAALRNQDYVELLLVNHLLP
MGSDKIHHHHHHNEAQVSAVKQFVEGFNQKNVQSMQSHTTDDVKWFSISEGAMALETSDKEELGEAMQNYFSGYSSAHAKIVNLVNSGDFISTVEQVKWQNEGKWFMQCSLGVYRFKQNKIASVWYYPAHVCDATNAQVN
